Data set [1] has as its target ZF17-MQ1 (synthetic) (UniProt P15840). Put plainly: cell_activity. To be noted: LL2 cells.
In data set [2] the target is ZF16-MQ1 (synthetic) (UniProt P15840). Put plainly: cell_activity. To be noted: LL2 cells.
Sequence of ZF16-MQ1 (synthetic) (P15840 other isoform, or with tags, fused parts or gaps): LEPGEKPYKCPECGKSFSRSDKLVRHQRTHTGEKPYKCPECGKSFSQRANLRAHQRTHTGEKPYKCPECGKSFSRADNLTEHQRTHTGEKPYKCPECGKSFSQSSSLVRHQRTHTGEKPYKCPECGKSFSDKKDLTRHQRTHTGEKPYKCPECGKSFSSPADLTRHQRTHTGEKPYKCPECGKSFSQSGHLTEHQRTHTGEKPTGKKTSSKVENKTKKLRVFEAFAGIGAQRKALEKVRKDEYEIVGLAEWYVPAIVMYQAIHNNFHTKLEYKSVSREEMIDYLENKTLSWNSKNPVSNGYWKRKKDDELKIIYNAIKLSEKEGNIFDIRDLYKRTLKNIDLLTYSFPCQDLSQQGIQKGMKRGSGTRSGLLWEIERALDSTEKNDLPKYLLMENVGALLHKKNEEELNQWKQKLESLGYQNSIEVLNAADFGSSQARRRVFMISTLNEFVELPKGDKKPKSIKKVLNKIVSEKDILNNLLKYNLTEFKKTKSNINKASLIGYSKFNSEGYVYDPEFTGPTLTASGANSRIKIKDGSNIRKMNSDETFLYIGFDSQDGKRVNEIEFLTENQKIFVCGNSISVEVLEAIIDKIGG

Sequence of ZF17-MQ1 (synthetic) (P15840 other isoform, or with tags, fused parts or gaps): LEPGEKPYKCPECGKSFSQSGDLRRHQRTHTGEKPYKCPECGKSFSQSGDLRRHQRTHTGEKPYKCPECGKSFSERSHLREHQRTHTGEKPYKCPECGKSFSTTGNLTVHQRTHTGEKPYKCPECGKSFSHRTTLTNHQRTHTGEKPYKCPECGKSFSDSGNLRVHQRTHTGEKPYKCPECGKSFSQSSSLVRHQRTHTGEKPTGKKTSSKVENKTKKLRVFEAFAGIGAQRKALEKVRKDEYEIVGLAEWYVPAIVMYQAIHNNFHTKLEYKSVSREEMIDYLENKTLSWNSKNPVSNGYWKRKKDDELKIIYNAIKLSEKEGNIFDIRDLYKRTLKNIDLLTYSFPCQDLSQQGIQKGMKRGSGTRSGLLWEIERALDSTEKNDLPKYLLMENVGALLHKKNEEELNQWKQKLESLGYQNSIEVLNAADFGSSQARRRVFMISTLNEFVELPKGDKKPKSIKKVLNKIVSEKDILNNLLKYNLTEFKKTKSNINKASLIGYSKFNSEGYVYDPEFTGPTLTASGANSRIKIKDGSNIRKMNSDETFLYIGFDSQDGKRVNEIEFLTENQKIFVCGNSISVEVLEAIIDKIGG

Regarding mouse Myc genomic locus, the activity (% MYC mRNA reduction) in data set [1] was greater than 99.9; in data set [2], 74.

For the origin of these results see patent US20240132559.
